This is an account of results in the nanobody polyreactivity screen of Harvey et al. (2022).

A short description of this series: yeast display, Sf9 membrane polyspecificity reagent, FACS + sequencing; frameworks hold sequencing errors. An outline of the steps: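 Using colony PCR, genes from sorted yeast display clones were amplified, then sequenced on MiSeq at 2 × 250 and filtered by CDR length. The clones had been stained with 10% biotinylated, detergent-solubilized Sf9 membrane reagent for 1 hour at 4 °C and sorted by FACS into low and high (top ~1%) gates on anti-HA and streptavidin fluorescence. Polyreactivity labels come from the gate of origin.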
Take “QVQPQESGGGLVQAGGSLRLSCAASGTIFAFQTMGWYRQAPGKERELVASITYGSSTNYADSVKGRFTISRDNAKNTVYLQMNSLKPEDTAVYYCAKSAQRYSYRYYYWGQGTQVTVSS”: the “polyreactivity (PSR sort gate)” value is “high polyreactivity”.

As for “QVQPQESGGGPVQACGSLRLSCAASGNILDADILGWYRLVPAKERELVASITDGGSTNYAESVKGRFTISRDNAKNTVYLQMNSLKPEDTAVYYCARRHRVFPSRIGHDYWGQGSQVTVSS”, the “polyreactivity (PSR sort gate)” value was “low polyreactivity”.

In the case of “QVQPVESRGGLVQAGGSLRLSCAASGRIFARNAQGWYRTAPGKERELVAAITYSSGRTYYADSVKGRFTISRDNAKNTVYLQMNSLKPEHTAVYYCADGKGYIGVSVSGGYGYWGPGTQVTVSS”, the “polyreactivity (PSR sort gate)” value is listed as “high polyreactivity”. In the case of “QVQQQASGGGLVQAGGSLRLSCATSGSIFYADTMGWYRQAPGKEREFVITYYADSVKGLSRDNAKNTVYLQMNSLKPEDSAVYYCATDGVNPFYAYDYWGQGTQVTVSS” it was “low polyreactivity”. In the case of “QVQQQESGGGLVQACGSLPLSCAASVSIFTQATMGWYRQPPGKERELVAAINFGSSTYYADSVKGRFTISRDNAKSTVYLQMNSLKPEDTSVYYCAVRALWYDLHDYWGQGTQVTVSS” it was “high polyreactivity”; in that of “QVQQQESGGGLVQAGGSLRLSCAASGTIFQLTVMGRYRQAPGKERELVASIDYGGNTNYADSVKGRFTISRDNAKNTVYLQMHSLKPEDTAVYYCAASSDSWTTHPYWGQGTQVTVSS”, “low polyreactivity”; in that of “QVQQQESGGGLVQEGGSLRLSCAASGYIFDYYYMGWYRQAPGKEREFVATISEGSTTNYADSVKGRFTTSRDNSKNTVYLQMNSLKPEDTAVYYCATDTVYGNDYWGQGTHVTVSS”, “low polyreactivity”. Regarding “QVQQRESGGGLVQAGGSLSLSCAASGTIFYSRYMGWYRQAPGKEREFVASISSGGNTNYADSVKGRCTISRDNAKNTVYLQMNSLKPEVTAVYYCAVNTGLITTFPFWGQATQVTVSS”, the “polyreactivity (PSR sort gate)” value is “high polyreactivity”. “QVQQVESGGGLVQAGGSLRLSCAASGFIFFGYAMGWYRQARGKERELVAAITSGGSTYYADSVKGRFTISRDNAKNTVYLQMNSLKPEDTAVYYCAADNSGWWGTGYNYWGQGTQVTVSS”: the “polyreactivity (PSR sort gate)” value is “high polyreactivity”.

Turning to “QVQQVESGGGLVQAGVSLRLSCPASGLTFYTNPRGWYRQAPGKERELVAAIRRRGGRTYYADSVKGRFTISRDNATNSVYLQMNSLKPEDTAVSYCAADYSTLYNYDYWGQGTQVTVSS”, the “polyreactivity (PSR sort gate)” value is given as “low polyreactivity”. “QVQREESGGGLVQAGGSLRLSCAASGSILYYNAMGWYRQAPGKEREFVAGISSSGGSTYYADSVKGRFTISRDNAKNTVYLQMKSLQPEENAVYYCAKRTYWRRGWCFDFWGQGTQVTVSS”: the “polyreactivity (PSR sort gate)” value is recorded as “high polyreactivity”. For “QVQRGESGGGLVQAGGSLRLSCAASAIIIYYYAMGCYRQAPGNERELVAGISYSGGSTYADSVKGRFTISRDNAKLTVYLQMNSLKPEDTAVYYCAAEYEYGGHWYDYWGQGTQETVSS”, the “polyreactivity (PSR sort gate)” value is “low polyreactivity”. In the case of “QVQRVDSGGGLRQAGGSLRLTCSASGSIFGLYAMGWYRQATGKERELVASISKSGGSTYYADCVKGRFTISRDNAKNTVYLQMNRLKPEDTAVYYCAARQYPRAGFDYWGQGTQVPVSS” it was “high polyreactivity”.

With “QVQRVDSGGGLVQAGGSLRLTCAASGFTFSQYVMGWYRQAPGKARELVAAISYRGGSTYYADSVKGRFTISRDNAKNTVYVQMNSLKPEDTAVYYCAAVAYSWHNRYDYWGQGTQVTVSS”, the “polyreactivity (PSR sort gate)” value is “high polyreactivity”. For “QVQRVESAAGLVQAGGSLRLSCAASGSIFWFNSMGWSRPEPGKERELVATIRYSGCSTYYADSVKGRFTISRDNAKKTVYLLMNSLKPDDTAVYYSAAVYRYSRSGYEYWGQGTQVTVSS”, the “polyreactivity (PSR sort gate)” value was “high polyreactivity”.

In the case of “QVQRVESAGGLVQAGGSLRLSCAPSGRILPSNAMGWYRQAPGKERELVAGITSGGSTDYADSVKGRFTISRDNAKNTVYIQMHSLKPEDTAVYYCAADSRRYGVRFDYWGQGTQVTVSS”, the “polyreactivity (PSR sort gate)” value is reported as “low polyreactivity”. The result for “QVQRVESGAGLVQAGGILRLSCPASGSIFTNNPMGWSRQAPGKARELVAGISFRGSSTYADSVKGRFTISRDNAKNSVYLQMNSLNPVDPAVYYCAGDGLYWWMYYWGQGTQVTVSS” reads “low polyreactivity”.
